Usually Kd stands for the constant that tells how readily two partners part at equilibrium. A lower Kd goes with tighter binding. What is called koff is a measure of how fast the partners let go of each other. The kon is a measure of how fast the partners come together.

This note sets out measurements from patent publication US20240294593A1 (Genentech, published 2024).

Numbering of substitutions follows the chain as printed. Numbers in names are those of the source.

The labels stand for the following.
B1: H1.37_L1 (antibody, human IgG1, kappa, V domains shown)
VH: EVQLVESGGGLVQPGGSLRLSCAASGFTFSSFGMHWVRQAPGKGLEWVSYIASGSSIIYYADSVKGRFTISRDNAKNSLYLQMNSLRAEDTAVYYCARGGRLVWSPDYWGQGTLVTVSS
VL: DIVMTQSPDSLAVSLGERATINCKSSQSLLNSGNQKNYLTWYQQKPGQPPKLLIYWASTRESGVPDRFTGSGSGTDFTLTISSLQAEDVAVYYCQNDYSYPFTFGSGTKLEIKR
notes: also called VH-S54A; Kabat 52A; copies: 2 + 2
B2: H1.40_L1 (antibody, human IgG1, kappa, V domains shown)
VH: B1 VH with A52V
VL: B1 VL
notes: also called VH-S54V; Kabat 52V; copies: 2 + 2
B3: H1.57_L1 (antibody, human IgG1, kappa, V domains shown)
VH: B1 VH with A52S, G54Q
VL: B1 VL
notes: also called VH-G56Q; Kabat 53Q; copies: 2 + 2
B4: H1.55_L1 (antibody, human IgG1, kappa, V domains shown)
VH: B1 VH with A52S, G54S
VL: B1 VL
notes: also called VH-G56S; Kabat 53S; copies: 2 + 2
B5: H1.49_L1 (antibody, human IgG1, kappa, V domains shown)
VH: B1 VH with A52S, S53V
VL: B1 VL
notes: also called VH-S55V; Kabat 52aV; copies: 2 + 2
B6: H1.46_L1 (antibody, human IgG1, kappa, V domains shown)
VH: B1 VH with A52S, S53A
VL: B1 VL
notes: also called VH-S55A; Kabat 52aA
B7: H1.66_L1 (antibody, human IgG1, kappa, V domains shown)
VH: B1 VH with A52S, S55V
VL: B1 VL
notes: also called VH-S59V; Kabat 54; copies: 2 + 2
B8: H1.45_L1 (antibody, human IgG1, kappa, V domains shown)
VH: B1 VH with A52S, S53T
VL: B1 VL
notes: also called VH-S55T; Kabat 52aT
B9: H1.63_L1 (antibody, human IgG1, kappa, V domains shown)
VH: B1 VH with A52S, S55A
VL: B1 VL
notes: also called VH-S59A; Kabat 54; copies: 2 + 2
B10: H1.41_L1 (antibody, human IgG1, kappa, V domains shown)
VH: B1 VH with A52H
VL: B1 VL
notes: also called VH-S54H; Kabat 52H; copies: 2 + 2
B11: H1.54_L1 (antibody, human IgG1, kappa, V domains shown)
VH: B1 VH with A52S, G54A
VL: B1 VL
notes: also called VH-G56A; Kabat 53A; copies: 2 + 2
B12: H1.38_L1 (antibody, human IgG1, kappa, V domains shown)
VH: B1 VH with A52Q
VL: B1 VL
notes: also called VH-S54Q; Kabat 52Q; copies: 2 + 2
B13: H1.56_L1 (antibody, human IgG1, kappa, V domains shown)
VH: B1 VH with A52S, G54T
VL: B1 VL
notes: also called VH-G56T; Kabat 53T; copies: 2 + 2
B14: H1.58_L1 (antibody, human IgG1, kappa, V domains shown)
VH: B1 VH with A52S, G54H
VL: B1 VL
notes: also called VH-G56H; Kabat 53; copies: 2 + 2
B15: H1.47_L1 (antibody, human IgG1, kappa, V domains shown)
VH: B1 VH with A52S, S53Q
VL: B1 VL
notes: also called VH-S55Q; Kabat 52aQ
B16: H1.64_L1 (antibody, human IgG1, kappa, V domains shown)
VH: B1 VH with A52S, S55Q
VL: B1 VL
notes: also called VH-S59Q; Kabat 54; copies: 2 + 2
B17: H1.53_L1 (antibody, human IgG1, kappa, V domains shown)
VH: B1 VH with A52S, S53E
VL: B1 VL
notes: also called VH-S55E; Kabat 52aE
B18: H1.59_L1 (antibody, human IgG1, kappa, V domains shown)
VH: B1 VH with A52S, G54K
VL: B1 VL
notes: also called VH-G56K; Kabat 53; copies: 2 + 2
B19: H1.62_L1 (antibody, human IgG1, kappa, V domains shown)
VH: B1 VH with A52S, S55T
VL: B1 VL
notes: also called VH-S59T; Kabat 54; copies: 2 + 2
B20: H1.44_L1 (antibody, human IgG1, kappa, V domains shown)
VH: B1 VH with A52E
VL: B1 VL
notes: also called VH-S54E; Kabat 52E
B21: H1.68_L1 (antibody, human IgG1, kappa, V domains shown)
VH: B1 VH with A52S, S55K
VL: B1 VL
notes: also called VH-S59K; Kabat 54; copies: 2 + 2
B22: H1.51_L1 (antibody, human IgG1, kappa, V domains shown)
VH: B1 VH with A52S, S53K
VL: B1 VL
notes: also called VH-S55K; Kabat 52aK
B23: H1.61_L1 (antibody, human IgG1, kappa, V domains shown)
VH: B1 VH with A52S, G54Y
VL: B1 VL
notes: also called VH-G56Y; Kabat 53; copies: 2 + 2
B24: H1.60_L1 (antibody, human IgG1, kappa, V domains shown)
VH: B1 VH with A52S, G54L
VL: B1 VL
notes: also called VH-G56L; Kabat 53; copies: 2 + 2
B25: H1.48_L1 (antibody, human IgG1, kappa, V domains shown)
VH: B1 VH with A52S, S53G
VL: B1 VL
notes: also called VH-S55G; Kabat 52aG
B26: H1.43_L1 (antibody, human IgG1, kappa, V domains shown)
VH: B1 VH with A52Y
VL: B1 VL
notes: also called VH-S54Y; Kabat 52Y
B27: H1.39_L1 (antibody, human IgG1, kappa, V domains shown)
VH: B1 VH with A52G
VL: B1 VL
notes: also called VH-S54G; Kabat 52G; copies: 2 + 2
B28: H1.67_L1 (antibody, human IgG1, kappa, V domains shown)
VH: B1 VH with A52S, S55H
VL: B1 VL
notes: also called VH-S59H; Kabat 54; copies: 2 + 2
B29: H1.69_L1 (antibody, human IgG1, kappa, V domains shown)
VH: B1 VH with A52S, S55Y
VL: B1 VL
notes: also called VH-S59Y; Kabat 54; copies: 2 + 2
B30: H1.52_L1 (antibody, human IgG1, kappa, V domains shown)
VH: B1 VH with A52S, S53Y
VL: B1 VL
notes: also called VH-S55Y; Kabat 52aY
B31: H1.65_L1 (antibody, human IgG1, kappa, V domains shown)
VH: B1 VH with A52S, S55G
VL: B1 VL
notes: also called VH-S59G; Kabat 54; copies: 2 + 2
B32: H1.42_L1 (antibody, human IgG1, kappa, V domains shown)
VH: B1 VH with A52K
VL: B1 VL
notes: also called VH-S54K; Kabat 52K
B33: H1.70_L1 (antibody, human IgG1, kappa, V domains shown)
VH: B1 VH with A52S, S55E
VL: B1 VL
notes: also called VH-S59E; Kabat 54; copies: 2 + 2
B34: H1.50_L1 (antibody, human IgG1, kappa, V domains shown)
VH: B1 VH with A52S, S53H
VL: B1 VL
notes: also called VH-S55H; Kabat 52aH; copies: 2 + 2

T1 sequence (Q15116 25-167 limits assumed): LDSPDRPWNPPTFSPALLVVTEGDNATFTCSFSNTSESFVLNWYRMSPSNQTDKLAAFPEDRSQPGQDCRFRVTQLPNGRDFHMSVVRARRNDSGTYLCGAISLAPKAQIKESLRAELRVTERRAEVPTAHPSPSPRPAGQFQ

This experiment addresses T1, human PD-1-His (human, UniProt Q15116 25-167, limits assumed).
T1 construct: Antigen of the Octet assays; not shown: His tag
Description: Octet. (In general: Biolayer interferometry detects binding as a change in optical thickness at a sensor tip.)
The molecule B1 came in with a Kd of 56 nM, a koff of 0.00763 s⁻¹ and a kon of 136000 M⁻¹ s⁻¹.

Turning to B2, the Kd is 231 nM, the off-rate (koff) amounted to 0.0293 s⁻¹ and the kon was found to be 127000 M⁻¹ s⁻¹.

On to B3, for which the Kd amounted to 30.9 nM, the koff turned out to be 0.00464 s⁻¹ and the kon was 150000 M⁻¹ s⁻¹.

Turning to B4, binding was put at a Kd of 33.9 nM, the koff worked out at 0.00457 s⁻¹ and the kon amounted to 135000 M⁻¹ s⁻¹.

B5 registered a Kd of 92.8 nM, a koff of 0.0136 s⁻¹ and an on-rate constant (kon) of 147000 M⁻¹ s⁻¹.

The molecule B6 had a Kd of 41.9 nM, a dissociation rate constant (koff) of 0.00529 s⁻¹ and a kon of 126000 M⁻¹ s⁻¹.

B7: the dissociation constant (Kd) worked out at 112 nM, the koff turned out to be 0.0129 s⁻¹ and the on-rate (kon) came to 115000 M⁻¹ s⁻¹.

Take B8: binding was characterised by a dissociation constant (Kd) of 74.5 nM, the off-rate (koff) is 0.0091 s⁻¹ and the kon came out at 122000 M⁻¹ s⁻¹.

Consider B9, for which binding was characterised by a dissociation constant (Kd) of 42.4 nM, the dissociation rate constant (koff) was determined as 0.00619 s⁻¹ and the kon turned out to be 146000 M⁻¹ s⁻¹.

As for B10, the dissociation constant Kd was 74.6 nM, the koff was 0.0104 s⁻¹ and the association rate constant (kon) amounted to 140000 M⁻¹ s⁻¹.

Consider B11, for which binding was put at a Kd of 34.5 nM, the koff turned out to be 0.00432 s⁻¹ and the on-rate (kon) stood at 125000 M⁻¹ s⁻¹.

Molecule B12 showed a Kd of 57.5 nM, an off-rate constant (koff) of 0.00776 s⁻¹ and an association rate constant (kon) of 135000 M⁻¹ s⁻¹.

Turning to B13, the dissociation constant Kd was 31.5 nM, the koff was 0.00407 s⁻¹ and the association rate constant (kon) was determined as 129000 M⁻¹ s⁻¹.

In turn, B14 came in with a Kd of 43.9 nM, a koff of 0.00544 s⁻¹ and a kon of 124000 M⁻¹ s⁻¹.

Consider B15, for which the equilibrium dissociation constant (Kd) worked out at 117 nM, the koff came to 0.0159 s⁻¹ and the association rate constant (kon) stood at 136000 M⁻¹ s⁻¹.

B16 displayed a Kd of 59.1 nM, a dissociation rate constant (koff) of 0.00783 s⁻¹ and a kon of 132000 M⁻¹ s⁻¹.

Regarding B17, binding was put at a Kd of 96 nM, the dissociation rate constant (koff) was 0.0283 s⁻¹ and the kon came to 295000 M⁻¹ s⁻¹.

In turn, B18 showed a Kd of 37.6 nM, a koff of 0.00494 s⁻¹ and an association rate constant (kon) of 131000 M⁻¹ s⁻¹.

Molecule B19 gave a Kd of 59.9 nM, a koff of 0.00774 s⁻¹ and an association rate constant (kon) of 129000 M⁻¹ s⁻¹.

Molecule B20 gave a Kd of 183 nM, a koff of 0.0225 s⁻¹ and a kon of 123000 M⁻¹ s⁻¹.

Molecule B21 yielded a Kd of 74 nM, a koff of 0.00808 s⁻¹ and a kon of 109000 M⁻¹ s⁻¹.

B22 returned a Kd of 54.9 nM, a koff of 0.00567 s⁻¹ and an association rate constant (kon) of 103000 M⁻¹ s⁻¹.

The molecule B23 came in with a Kd of 41.5 nM, a koff of 0.00574 s⁻¹ and a kon of 138000 M⁻¹ s⁻¹.

On to B24, for which binding was characterised by a dissociation constant (Kd) of 35.9 nM, the koff stood at 0.00458 s⁻¹ and the association rate constant (kon) turned out to be 128000 M⁻¹ s⁻¹.

With B25, the affinity, expressed as Kd, was 20.1 nM; the off-rate (koff) is 0.00293 s⁻¹; the association rate constant (kon) turned out to be 146000 M⁻¹ s⁻¹.

Molecule B26 returned a Kd of 665 nM, a koff of 0.148 s⁻¹ and an on-rate (kon) of 223000 M⁻¹ s⁻¹.

Molecule B27 displayed a Kd of 115 nM, a koff of 0.0178 s⁻¹ and a kon of 154000 M⁻¹ s⁻¹.

Take B28: binding was put at a Kd of 49.2 nM, the koff was found to be 0.00692 s⁻¹ and the kon came to 141000 M⁻¹ s⁻¹.

As to B29, the Kd was 59.6 nM, the off-rate constant (koff) was found to be 0.00818 s⁻¹ and the on-rate (kon) was determined as 137000 M⁻¹ s⁻¹.

Molecule B30 gave a dissociation constant (Kd) of 33.1 nM, a koff of 0.00423 s⁻¹ and a kon of 128000 M⁻¹ s⁻¹.

For the molecule B31, the dissociation constant (Kd) came to 61 nM, the koff amounted to 0.00827 s⁻¹ and the association rate constant (kon) is 136000 M⁻¹ s⁻¹.

Molecule B32 displayed a dissociation constant Kd of 500 nM, an off-rate (koff) of 0.0265 s⁻¹ and a kon of 53000 M⁻¹ s⁻¹.

Molecule B33 came in with a dissociation constant (Kd) of 48 nM, a koff of 0.00674 s⁻¹ and a kon of 140000 M⁻¹ s⁻¹.

B34 registered a dissociation constant (Kd) of 24.2 nM, a koff of 0.00287 s⁻¹ and an on-rate constant (kon) of 119000 M⁻¹ s⁻¹.
